Measured values: publication PMC5489476, “A thermophilic cell-free cascade enzymatic reaction for acetoin synthesis from pyruvate” (Scientific Reports, 2017)

Assays:
coAHASL1 = biological target: T1, coAHASL1 (Caldicellulosiruptor owensensis, UniProt E4Q3I4); test: colorimetric acetoin assay; activity with […] FAD; type: biochemical; conditions: pyruvate, ThDP, Mg2+; 65 °C, Tris pH 6.5
T1 construct: gene Calow_0356; catalytic subunit alone, EC 2.2.1.6
T1 sequence (E4Q3I4 1-536): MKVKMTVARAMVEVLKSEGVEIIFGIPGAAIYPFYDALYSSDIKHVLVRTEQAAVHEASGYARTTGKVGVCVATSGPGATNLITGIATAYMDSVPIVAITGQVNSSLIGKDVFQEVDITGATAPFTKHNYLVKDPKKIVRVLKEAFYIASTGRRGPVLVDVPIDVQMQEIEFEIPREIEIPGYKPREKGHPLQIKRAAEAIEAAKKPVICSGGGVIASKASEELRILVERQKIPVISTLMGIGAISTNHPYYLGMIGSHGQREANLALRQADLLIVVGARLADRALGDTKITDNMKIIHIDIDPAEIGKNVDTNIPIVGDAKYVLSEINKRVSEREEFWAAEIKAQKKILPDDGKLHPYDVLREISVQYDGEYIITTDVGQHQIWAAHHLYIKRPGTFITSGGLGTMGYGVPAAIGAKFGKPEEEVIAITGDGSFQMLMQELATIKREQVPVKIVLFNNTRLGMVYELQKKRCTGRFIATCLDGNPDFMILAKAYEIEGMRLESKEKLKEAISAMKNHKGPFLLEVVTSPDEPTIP

coAHASL2 = biological target: T2, coAHASL2 (Caldicellulosiruptor owensensis, UniProt E4Q4G3); test: colorimetric acetoin assay; activity with […] FAD; type: biochemical; conditions: pyruvate, ThDP, Mg2+; 65 °C, Tris pH 6.5
T2 construct: gene Calow_0543; catalytic subunit alone, EC 2.2.1.6
T2 sequence (E4Q4G3 1-552): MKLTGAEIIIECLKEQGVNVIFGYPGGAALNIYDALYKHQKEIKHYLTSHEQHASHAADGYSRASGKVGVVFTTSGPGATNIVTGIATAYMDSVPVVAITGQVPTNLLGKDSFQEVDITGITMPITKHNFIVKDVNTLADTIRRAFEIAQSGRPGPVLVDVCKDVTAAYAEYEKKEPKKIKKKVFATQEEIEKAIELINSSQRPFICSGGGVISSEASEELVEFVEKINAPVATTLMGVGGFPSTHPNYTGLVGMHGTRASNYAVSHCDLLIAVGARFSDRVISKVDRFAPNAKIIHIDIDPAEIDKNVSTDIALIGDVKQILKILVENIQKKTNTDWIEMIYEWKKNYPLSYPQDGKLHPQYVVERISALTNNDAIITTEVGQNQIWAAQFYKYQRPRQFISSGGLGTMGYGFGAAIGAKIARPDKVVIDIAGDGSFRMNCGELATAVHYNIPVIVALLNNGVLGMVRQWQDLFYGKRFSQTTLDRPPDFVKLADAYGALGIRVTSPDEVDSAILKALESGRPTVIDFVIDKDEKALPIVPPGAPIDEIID

purified protein = substrate: CC(=O)C(=O)O; test: purified protein; type: biochemical, Caldicellulosiruptor owensensis; conditions: ThDP, FAD, Mg2+, catalytic subunit alone
[1] = 70 °C, pH 6.5 (citrate-phosphate)

Molecule: Cc1cc2nc3c(=O)[nH]c(=O)nc-3n(C[C@H](O)[C@H](O)[C@H](O)COP(=O)(O)OP(=O)(O)OC[C@H]3O[C@@H](n4cnc5c(N)ncnc54)[C@H](O)[C@@H]3O)c2cc1C [FAD]
- activity enhancement (coAHASL1): concentration-dependent enhancements of both coAHASL1 and coAHASL2 were observed upon the addition of FAD
- activity enhancement (coAHASL2): concentration-dependent enhancements of both coAHASL1 and coAHASL2 were observed upon the addition of FAD

B1: coAHASL2 (Caldicellulosiruptor owensensis OL) (protein)
chain: MKLTGAEIIIECLKEQGVNVIFGYPGGAALNIYDALYKHQKEIKHYLTSHEQHASHAADGYSRASGKVGVVFTTSGPGATNIVTGIATAYMDSVPVVAITGQVPTNLLGKDSFQEVDITGITMPITKHNFIVKDVNTLADTIRRAFEIAQSGRPGPVLVDVCKDVTAAYAEYEKKEPKKIKKKVFATQEEIEKAIELINSSQRPFICSGGGVISSEASEELVEFVEKINAPVATTLMGVGGFPSTHPNYTGLVGMHGTRASNYAVSHCDLLIAVGARFSDRVISKVDRFAPNAKIIHIDIDPAEIDKNVSTDIALIGDVKQILKILVENIQKKTNTDWIEMIYEWKKNYPLSYPQDGKLHPQYVVERISALTNNDAIITTEVGQNQIWAAQFYKYQRPRQFISSGGLGTMGYGFGAAIGAKIARPDKVVIDIAGDGSFRMNCGELATAVHYNIPVIVALLNNGVLGMVRQWQDLFYGKRFSQTTLDRPPDFVKLADAYGALGIRVTSPDEVDSAILKALESGRPTVIDFVIDKDEKALPIVPPGAPIDEIID
notes: catalytic subunit alone, EC 2.2.1.6
- Km (purified protein; [1]): 53.78 ± 2.68 mM
- Vmax (purified protein; [1]): 0.7 µmol/min/mg

B2: coAHASL1 (Caldicellulosiruptor owensensis OL) (protein)
chain: MKVKMTVARAMVEVLKSEGVEIIFGIPGAAIYPFYDALYSSDIKHVLVRTEQAAVHEASGYARTTGKVGVCVATSGPGATNLITGIATAYMDSVPIVAITGQVNSSLIGKDVFQEVDITGATAPFTKHNYLVKDPKKIVRVLKEAFYIASTGRRGPVLVDVPIDVQMQEIEFEIPREIEIPGYKPREKGHPLQIKRAAEAIEAAKKPVICSGGGVIASKASEELRILVERQKIPVISTLMGIGAISTNHPYYLGMIGSHGQREANLALRQADLLIVVGARLADRALGDTKITDNMKIIHIDIDPAEIGKNVDTNIPIVGDAKYVLSEINKRVSEREEFWAAEIKAQKKILPDDGKLHPYDVLREISVQYDGEYIITTDVGQHQIWAAHHLYIKRPGTFITSGGLGTMGYGVPAAIGAKFGKPEEEVIAITGDGSFQMLMQELATIKREQVPVKIVLFNNTRLGMVYELQKKRCTGRFIATCLDGNPDFMILAKAYEIEGMRLESKEKLKEAISAMKNHKGPFLLEVVTSPDEPTIP
notes: as for B1
- Km (purified protein; 65 °C, pH 6.5 (Tris)): 71.83 ± 4.63 mM
- Vmax (purified protein; 65 °C, pH 6.5 (Tris)): 3.7 µmol/min/mg
